# Changes are numbered by the printed parent chain. Names and notes keep the numbering of the source. Like-named read-outs stand apart in the source and are kept apart here.
# B1: UbaA, E1-like SAMP-activating enzyme of Haloferax volcanii, purified wild type (enzyme, UniProt D4GSF3 1-270, looked up)
# chain: MTLSLDATQLDRYSRHIIMDEVGPEGQGRLLSSRVVVVGAGGLGAPAIQYLAAVGVGELVVVDDDVVERSNLQRQVVHCDDDVGTPKAESAAAFVRGLNPDVSVEPVEARVDKSNVHEVVAGSDVVVDASDNFPTRYLLNDVCRFEGIPLVHGAIYKFEGQATTLVPDGPCYRCLFPEAPEPGTVPDCATTGVLGVLPGTVGCIQATEAMKLLLDEGEALDGRLLFYDAMDMTFETVPYRTNPDCPVCGEGGVDSIEDIDYVESCAISLD
# B2: SAMP1, small ubiquitin-like archaeal modifier protein 1, purified (natural protein, Haloferax volcanii, UniProt D4GUF6 1-87, looked up)
# chain: MEWKLFADLAEVAGSRTVRVDVDGDATVGDALDALVGAHPALESRVFGDDGELYDHINVLRNGEAAALGEATAAGDELALFPPVSGG
# B3: UbaA K87R, purified (enzyme, Haloferax volcanii, UniProt D4GSF3 1-270, looked up)
# chain: B1 chain with K87R
# B4: SAMP2, small ubiquitin-like archaeal modifier protein 2, purified (natural protein, Haloferax volcanii, UniProt D4GZE7 1-66, looked up)
# chain: MNVTVEVVGEETSEVAVDDDGTYADLVRAVDLSPHEVTVLVDGRPVPEDQSVEVDRVKVLRLIKGG
# B5: UbaA D131N, purified (enzyme, Haloferax volcanii, UniProt D4GSF3 1-270, looked up)
# chain: B1 chain with D131N
# B6: UbaA C188A, purified (enzyme, Haloferax volcanii, UniProt D4GSF3 1-270, looked up)
# chain: B1 chain with C188A
# Key:
# [1] = target: the molecule itself; test: SEC
# [2] = target: B1; test: ITC
# [3] = target: B1; test: ITC; remark: listed apart in the source
# [4] = target: B1; test: ITC; remark: listed apart in the source
# [5] = target: B1; test: ITC; remark: listed apart in the source
binder,measurement,setting,value
B1,stoichiometry N,[1],2
B2,Ka,[2],250000 M⁻¹
same,Kd,[2],4.1 µM
same,dH,[2],16 kJ/mol
same,stoichiometry N,[2],1.02
same,Ka,[3],590000 M⁻¹
same,Kd,[3],1700 nM
same,dH,[3],36.2 kJ/mol
same,stoichiometry N,[3],0.95
same,Ka,[4],230000 M⁻¹
same,Kd,[4],4.4 µM
same,dH,[4],20.7 kJ/mol
same,stoichiometry N,[4],0.95
same,Ka,[5],850000 M⁻¹
same,Kd,[5],1200 nM
same,dH,[5],12.2 kJ/mol
same,stoichiometry N,[5],0.98
B3,stoichiometry N,[1],2
B4,Ka,[5],230000 M⁻¹
same,Kd,[5],4300 nM
same,dH,[5],-69 kJ/mol
same,stoichiometry N,[5],0.99
B5,stoichiometry N,[1],2
B6,stoichiometry N,[1],2

# — paper PMC5053900 (The FEBS journal, 2016)
